Measurements taken from patent publication US20240101708A1 (Genentech, published 2024).

T1: recombinant human RNF43 extracellular domain (human, UniProt Q68DV7 24-197)
T1 construct: extracellular domain; also called huRNF43; human RNF43 ECD
T1 sequence (looked up): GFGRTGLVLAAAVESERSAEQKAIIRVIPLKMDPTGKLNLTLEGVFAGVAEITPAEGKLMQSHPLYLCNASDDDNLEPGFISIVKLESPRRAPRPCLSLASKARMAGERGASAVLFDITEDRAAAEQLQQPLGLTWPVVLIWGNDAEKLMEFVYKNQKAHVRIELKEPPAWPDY


Target: T1, recombinant human RNF43 extracellular …
Test: SPR Biacore 8K; antibody captured on Protein A; RNF43 ECD analyte; 25 C
Procedure: Antibodies were screened for binding to recombinant human RNF43 and ZNRF3 ECDs using a Biacore® 8 k instrument (GE Life Sciences). Briefly, antibodies diluted to 1 μg/ml in 1×HBSP buffer (Cytiva, BR100368) were captured on a Sensor Chip Protein A (GE Life Sciences) using a flow rate of 10 μl/minute and a contact time of 60 seconds. Binding of recombinant human RNF43 and ZNRF3 extracellular domain to the captured antibodies was analyzed at 25° C. using a single cycle kinetics method with a flow rate of 30 μl/minute, a contact time of 180 seconds and a dissociation time of 600 seconds. The concentration of recombinant human RNF43 and ZNRF3 extracellular domain in the single cycle kinetics were 0, 0.8, 4, 20, and 100 nM. Between cycles, the chip was regenerated using 10 mM Glycine HCl pH 1.5 injected for 30 seconds at 30 μl/minute. Data were evaluated using Biacore 8K Evaluation software (GE Life Sciences). Kinetic constants were obtained using a 1:1 binding model with the parameter RI set to zero. Cell surface ligase antibodies with sub-nanomolar affinities may provide advantages in certain instances, for example, in the degradation efficiency which is correlated with the durability of the ternary complex as shown in FIG. 5D.

Binder | Kd [nM]
RNF43-221 (antibody, V domains shown, Rat clone; VH/VL only) VH: EVQLVESGGGLVQPGRSLKLSCTASGFTLSDYAMAWVRQAPEKGLEWVATISYDGSRTYYGGSVKGRFTISRDNAENILYLQMDSLRSADTATYYCANSATPHYWGQGVMVTVSS VL: DVVMTQTPASLSLAIGQPASISCKSSQSLLDTSRKTFLNWILQRPGQSPKRLIYQVSKLYSEVPDRFSGSGSETEFTLKISRVEAEDLGVYYCWQGTHFPDTFGAGTKLELK | 51.6
RNF43-117 (antibody, V domains shown, Rat clone; VH/VL only) VH: QVSLKESGPGMLQPSQTLSLTCTFSEFSLSTYGLGVGWIRQPSGKGLEWLANIWWDDDKYYNPSLKNRLTISKDTSNNQAFLKITNVDTADTATYYCARIDGRWHYFDYWGQGDRVIVSS VL: DIVLTQTPSILSATIGQSVSISCRSTQSLLDSDGNTYLYWFLQRPGQSPQRLIYLVSNLGSGVPNRFSGSGSGTDFTLKISGVEAEDLGFYYCMQGAHTPLTFGSGTKLEIK | 19.8
RNF43-201 (antibody, V domains shown, Rat clone; VH/VL only) VH: QVTLKEYGPGILQPSQTLSLTCTFSGFSLRTYGMGVGWIRQPSGKGLEWLTNIWWDDDKYYNPSLKNRLTISKDTSNNQAFLKITNVDTEDSATYYCARIDGTFNYFDYWGQGVMVTVSS VL: DVVLTQTPSRLSATIGQSVSISCRSSQSLLDSDGNTYLYWFLQRPGQSPQRLIYLVSNLGSGVPNRVSGSGSGTDFTLKISGVEAEDLGIYYCLQATHAPLTFGSGTKLEIK | 9.9
RNF43-104 (antibody, V domains shown, Rat clone; VH/VL only) VH: QVQLKESGPGLVQPSQTLSLTCSVSGFSLTSFHVHWVRQPPGKGLEWMGLMWSNGDTSYNSDLKSRLSISRDTSKSQVFLKMHSLQTEDTATYYCARTDVYHGFGAMDAWGQGTSVTVSS VL: DIQMTQSPSFLSASLGNSITITCHASQFIKGWLAWYQQKSGNAPELLIYKSSSLHSGVPSRFSGSGSGTDYILTISNLQPEDIATYYCQHYQGFPLTFGSGTKLEIK | 9.12
RNF43-152 (antibody, V domains shown, Rat clone; VH/VL only) VH: QVTLKESGPGILQPSQTLSLTCTFSGSSLSTYGMGVGWIRQPSGKGLEWLANIWWDDDKYYNPSLKNRLTISKDTSNNQSFLKIANVDTADTATYYCARIDGTYNYFDYWGQGVMVTVSS VL: DVVLTQTPSRLSATIGQSVSISCRSSQSLLDSYGNTYLSWFLQRPGQSPQRLIFLVSNLGSGVPNRVSGSGSGTDFTLKISGVEAEDLGVYYCMQTTHDPLTFGSGTKLEIK | 17.8
RNF43-129 (antibody, V domains shown, Rat clone; VH/VL only) VH: EVQLVESGGGLVQPGRSMKLSCAASGFTFSNYDMAWVRQAPKKGLEWVASITYDVSSTYYRDSVKGRFTISRDNAKSTLYLQMDSLRSEDTATYYCTTLDRAGYYYDGYGFYWFANWGQGTLVTVSS VL: DIQMTQSPSSMSVSLGDTVTITCRASQDVKIYVNWFQQKPGKSPRQMIYRATNLADGVSSRFSGSRSGSDYLFTISSLESEDVADYHCLQYDEYPPTFGSGTKVEIK | 1.17
RNF43-116 (antibody, V domains shown, Rat clone; VH/VL only) VH: QVQLQQSGAELAKPGSSVKISCKASGYTFTSYYISWIKQTTGQDLEYIGYVNTRSGGTNYNEKFKVKATLTVDNSSSTAFMQLSSLTPDDSAVYYCARGRTDWGQGTLVTVSS VL: DIQMTQSPSLLSASVGDRVTVNCKASQNIYKNLEWYQQKHGEAPKLLIYYTNNLQTGISSRFSGSGSGTDYTLTISSLQPEDVATYYCFQYNSGYTFGAGTKLELK | 1.42
RNF43-180 (antibody, V domains shown, Rat clone; VH/VL only) VH: EAQLVESGGGLVRPGRSLKLTCAASGFTFSHYDMAWVRQAPARGLEWVASIGPGGGLTHYRDSVKGRFTVSRDHAESSLYLQMDSLRSEDTATYYCARHYGWSYFDYWGQGVMVTVSS VL: DIQMTQSPSFLSASLGDSITITCHASQNIKGWLAWYQQKSGNAPELLIYTASGLRSGVPSRFSGSGSGTDYILTISNLQPEDFATYYCQHYQSFPNTFGAGTKLELR | 2.81
RNF43-145 (antibody, V domains shown, Rat clone; VH/VL only) VH: EVQLKESGPGLVQPSQTLSLTCTVSGFSLTDYSVYWVRQPPGKGLEWMGVMWSGGTTAYNSALKSRLSISRDTSKSQVFLKMNSLQTEDTAIYYCTRGGKYDGTYYYGWYFDFWGPGTMVTVSS VL: DVVLTQSPATLSVTPGERISLSCRASESVDTYLYWYQQKPNESPRLLIKYASQSISGIPSRFSGSGSGTDFTLSINGVELEDLSIYYCQQGNSLPLTFGSGTKLEIK | 0.504
RNF43-156 (antibody, V domains shown, Rat clone; VH/VL only) VH: EVQLKESGPGLVQPSQTLSLTCTVSGFSLTDYSVYWVRQPPGKGLEWMGVMWRGGTTAYNSALKSRLSISRDTSKSQVFLKMNSLQTEDTAIYYCTRGGKYDGTYYYGWYFDFWGPGTMVTVSS VL: DVVLTQSPATLSVTPGERISLSCRASESVDTYLYWYQQKPNESPRLLIKYASQSISGIPSRFSGSGSGTDFTLSINGVELEDLSIYYCQQGNSLPLTFGSGTKLEIK | 0.209
RNF43-224 (antibody, V domains shown, Rat clone; VH/VL only) VH: EVQLKESGPGLVQPSQTLSLTCTVSGFSLSDYSVHWVRQPPGKGLEWMGVMWSGGTTAYNSALKSRLSISRDTSKNQVLLEMNSLQTEDTAIYYCTRGGKYDGTYYYGWYFDFWGPGTMVTVSS VL: DVVLTQSPATLSVTPGERISLSCRASESVDTYLSWYQQKPNESPRLLIKYASQSISGIPSRFSGSGSGTDFTLSINGVELEDLSIYYCQQGNSLPLTFGSGTKLEIK | 0.584
RNF43-176 (antibody, V domains shown, Rat clone; VH/VL only) VH: QVQLKESGPGLVQPSQTLSLTCTVSGFSLTSYHVSWVRQPPGKGLEWMGVIWTGGSTAYNSLLKSRLSISRDISKSQVFLKMNSLQTEDTATYYCASQYYGYTSYFDYWGQGVMVTVSS VL: DIQMTQSPVSLSASPEEIVTITCQASQDIDNWLTWYQQKPGKSPQLLIYSATSLADGIPSRFSGSRSGTQYSLKISRLQIEDTGIYYCLQRYGNPWTFGGGTKLELK | 5.71
RNF43-168 (antibody, V domains shown, Rat clone; VH/VL only) VH: QVQLKESGPGLVQPSQTLSLTCTVSGFSLNRYHVSWVRQPPGKGLEWMGVVWTGGSTAYNSLLKSRLSISRDISKSQVFLKMISLQTEDTATYYCVSQYYGYTSYFDYWGQGVMVTVSS VL: DIQMTQSPASLSASPEEIVTVTCQASQDIDNWLTWYQQKPGKSPQLLIYSATSLADGIPSRFSGSRSGTQYSLKIDRLQVEDTGIYYCLQRYGNPWTFGGGTKLELK | 1.36
RNF43-206 (antibody, V domains shown, Rat clone; VH/VL only) VH: QVQLKESGPGLVQPSQTLSLTCTVSGFSLTSFHISWVRQPPGKGLEWMGIIWTGGSTAYNSLLKSRLSISRDISKSQVFLKMNSLQTEDTATYYCAGSYHGYTSYFDYWGQGVMVTVSS VL: DIQMTQSPASLSASPEEIVTITCQASQDIDNWLAWYQQQPGKSPQLLIYSATSLADGIPSRFSGSRSGTQYSLKINRLQVEDTGIYYCLQRYSNPWTFGGGTKLELK | 0.58
RNF43-200 (antibody, V domains shown, Rat clone; VH/VL only) VH: QVQLKESGPGLVQPSQTLSLTCTVSGFSLTSYHISWVRQPPGKGLEWMGVIWTGGSTAYNSLLKSRLSISRDISKSQVFLKMNSLQAEDTATYYCAGSYYGYTSYFDYWGQGVMVTVSS VL: DIQMTQSPASLSASPEEIVTITCQASQDIDNWLAWYQQKPGKSPQLLIYSATRLADGIPSRFSGSRSGIQYSLKINRLQVEDTGIYYCLQRFGNPWTFGGGTKLELK | 0.539
RNF43-107 (antibody, V domains shown, Rat clone; VH/VL only) VH: EVQPVESGGGLVQPGRSLKLSCPASGFTFSNYDMAWVRQAPTKGLEWVASISPSGGRTYYRDSVKGRFTISRDNSKSTLYLQMDSLRSEDTATFYCATHRYYSYFDFWGQGVMVTVSS VL: DIQMTQSPASLSASLGETISIDCRTSEDIYNNLAWYQQKSGRSPQLLISATNRLQDGVPSRFSGSGSGTQYSLKISGMQPEDEGVYFCLQGSKYPYTFGTGTKLELK | 0.341
RNF43-126 (antibody, V domains shown, Rat clone; VH/VL only) VH: EVQLQESGPGLVKPSQSLSLTCSVTGFSITSSHRWNWIRKFPGNKLEWMGYINSAGSTNYNPSLKSRISITRDTSKNQFFLQVNSVTTEDTATYYCTRLGLQYRDFDYWGQGVMVTVSS VL: DIQMTQSPASLSASLGETISIECRASDDIYSNLAWYQQKSGKSPQLLIYAANRLKDGVPSRFSGSGSGTQYSLKISGMQTEDEGDYFCLQASKFPLTFGSGTKLEIK | 1.75
RNF43-217 (antibody, V domains shown, Rat clone; VH/VL only) VH: EVQLQESGPGLVKPSQSLSLTCSVTGFSITSSHRWNWIRKFPGNKLEWMGYINSAGSTNYNPSLKSRVSITRDASKNQFFLQVNSVTTEDTATYYCTRLGLQYRDFDYWGQGVMVTVSS VL: DIQMTQSPASLSASLGETISIECRASDDIYSNLAWYQQKSGKSPQLLIYAANRLKDGVPSRFSGSGSGTQYSLKISGMETEDEGDYFCLQASKFPLTFGSGTKLEIK | 1.49
RNF43-170 (antibody, V domains shown, Rat clone; VH/VL only) VH: EVQLVESGGGLVPPGRSLKLSCVASGFTFNDYYMAWVRQAPTKGLEWVASISYEGRRTYYGDSVKGRFTISRDNAKSTLYLQMNSLRSDDTATYYCATHSNYIFDYWGQGVMVTVSS VL: DIRMTQSPASLSASLGETVNIECLASEDIYSDFAWFQQKPGQSPLLLIYNGNSLQNGVPSRFSGSGSGTQYSLKINSLQSEDVATYFCQQYNNYPPTFGGGTKLELK | 76
RNF43-179 (antibody, V domains shown, Rat clone; VH/VL only) VH: EVQLVESGGGLVQPGRSLKLSCVASGFTFNDYYMAWVRQAPKKGLEWVASINYEGSRTYYGDSVKGRFTISRDNAKSTLYLQMNSLRSEDTATYYCATHSNYIFDNWGQGVMVTVSS VL: DIRMTQSPASLSASLGETVNIECLASEDIYSDFAWFQQKPGQSPLLLIYNGNNLQNGVPSRFSGSGSGTQYSLKINSLQSEDVATYFCQQYNNYPPTFGGGTKLELK | 31.7
